{"source": "patent US20090217400", "proteins": {"B1": {"name": "Cre mutant CM2 [C2(+/-)#4] (protein)", "chain": "MSNLLTVHQNLPALPVDATSDEVRKNLMDMFRDRQAFSEHTWKMLLSVCRSWAAWCKLNNRKWFPAEPEDVRDYLLYLQARGLAVKTIQQHLGQLNMLHRRSGLPRPSDSNAVSLVMRRIRKENVDAGERAKQALAFERTDFDQVRSLMENSDRCQDIRNLAFLGIAYNTLLRAAEIARIRVKDISRTDGGRMLIHIGRTKTLVSTAGVEKALSLGVTKLVERWISVSGVADDPNNYLFCRVRKNGVAAPSATSQLSLSALHGIFGATHRLIYGAKDDSGQRYLAWSGHSARVGAARDMARAGVSIPEIMQAGGWTNVNIVMNYIRNLDSETGAMVRLLEDGD"}}, "target": "T1, wild type Cre recombinase, P06956", "T1 chain": "B1 chain with A174I, L258T, S259R, H262E, G266E", "note": "Numbering of substitutions follows the chain as printed.", "data": [{"protein": "B1", "values": [{"measurement": "catalytic efficiency of recombination of the asymmetric loxP-M7 substrate (wt Cre-CM2 mixture compared with CM1)", "result": "both the wt Cre-CM2 mixture and CM1 demonstrated comparable catalytic efficiency"}, {"measurement": "recombination extent after 30 min (loxP-M7 substrate, wt Cre-CM2 mixture, 30 nM enzyme)", "result": "approximately 20% after 30 min"}, {"measurement": "recombination extent after 90 min (loxP-M7 substrate, wt Cre-CM2 mixture, 30 nM enzyme)", "result": "25-30% after 90 min"}, {"measurement": "recombination rate (observed rate constant, loxP-M7 substrate, wt Cre-CM2 mixture, 30 nM enzyme)", "result": "0.034 and 0.048 min-1, respectively"}, {"measurement": "substrate recombination in 1 h (in vitro recombination of loxP-M7 DNA substrate, equal wt Cre-CM2 mixture at 30 nM and 60 nM total enzyme)", "result": "approximately 35% substrate recombination in 1 h"}]}]}
